Results on 94 variants are retold here after the supplement of paper PMC10567573.

To fix the notation:
B1: ZBTB22 (parent)
chain: RPFDCPVCNKKFKMKHHLTEHMKT
B2: TOR1AIP2 (parent)
chain: HHVADAYTSSQKVSPIQIDGAGRT
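Note: lentivirally expressed fusions sorted by FACS into six bins by GFP to DsRed ratio, PSI derived from sequencing read proportions per bin multiplied by bin number.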

The variants in the first series derive from B1. Put plainly: protein stability index of a GFP-peptide fusion (GPS, HEK-293T) (PSI 1-6); higher = more stable. To be noted: c terminus: a fixed tail appended.
On to RPFDCPVCNKKFKMKHHLTEHMKQ [T24Q], for which the protein stability index was 2.53.
Take RPFDCPVCNKKFKMKHHLTEHMKW [T24W]: the protein stability index was 2.22.
On to RPFDCPVCNKKFKMKHHLTEHMKG [T24G], for which the protein stability index was 2.44.
The same measure, in the same setting: the value for RPFDCPVCNKKFKMKHHLTEHMKH [T24H] was 2.41; that for RPFDCPVCNKKFKMKHHLTEHMKA [T24A] was 2.87.
With RPFDCPVCNKKFKMKHHLTEHMKL [T24L], the protein stability index stood at 3.19.
Turning to RPFDCPVCNKKFKMKHHLTEHMKD [T24D], the protein stability index was 3.55.
Still for that read-out and setting: with RPFDCPVCNKKFKMKHHLTEHMKN [T24N] the figure was 2.54; with RPFDCPVCNKKFKMKHHLTEHMKP [T24P], 2.45; with RPFDCPVCNKKFKMKHHLTEHMKI [T24I], 1.95.
As for RPFDCPVCNKKFKMKHHLTEHMKE [T24E], the protein stability index came out at 3.21.
Consider RPFDCPVCNKKFKMKHHLTEHMKR [T24R], for which the protein stability index was determined as 2.84.
Same read-out and setting: with RPFDCPVCNKKFKMKHHLTEHMKF [T24F] the figure was 2.46.
Regarding RPFDCPVCNKKFKMKHHLTEHMKK [T24K], the protein stability index was 2.43.
RPFDCPVCNKKFKMKHHLTEHMKM [T24M]: the protein stability index turned out to be 2.5.
Take RPFDCPVCNKKFKMKHHLTEHMKC [T24C]: the protein stability index was found to be 3.07.
On the same count and under the same terms, the value for RPFDCPVCNKKFKMKHHLTEHMKV [T24V] was 2.34; that for RPFDCPVCNKKFKMKHHLTEHMKY [T24Y] was 2.01; that for RPFDCPVCNKKFKMKHHLTEHMKS [T24S] was 2.53.
The same measure, in the same setting: with RPFDCPVCNKKFKMKHHLTPHMKT [E20P] the figure was 2.11.
With RPFDCPVCNKKFKMKHHLTSHMKT [E20S], the protein stability index stood at 1.93.
Take RPFDCPVCNKKFKMKHHLTVHMKT [E20V]: the protein stability index came out at 2.36.
In the case of RPFDCPVCNKKFKMKHHLTRHMKT [E20R], the protein stability index was determined as 3.45.
For the variant RPFDCPVCNKKFKMKHHLTTHMKT [E20T], the protein stability index turned out to be 2.31.
Turning to RPFDCPVCNKKFKMKHHLTWHMKT [E20W], the protein stability index is 2.08.
As for RPFDCPVCNKKFKMKHHLTNHMKT [E20N], the protein stability index was 3.
Same read-out and setting: the value for RPFDCPVCNKKFKMKHHLTYHMKT [E20Y] was 1.85.
On the same count and under the same terms, with RPFDCPVCNKKFKMKHHLTQHMKT [E20Q] the figure was 2.8; with RPFDCPVCNKKFKMKHHLTEQMKT [H21Q], 2.34.
The same measure, in the same setting: the value for RPFDCPVCNKKFKMKHHLTEDMKT [H21D] was 2.37; that for RPFDCPVCNKKFKMKHHLTELMKT [H21L] was 1.45.
On to RPFDCPVCNKKFKMKHHLTEYMKT [H21Y], for which the protein stability index worked out at 2.2.
With RPFDCPVCNKKFKMKHHLTERMKT [H21R], the protein stability index worked out at 2.25.
On to RPFDCPVCNKKFKMKHHLTEIMKT [H21I], for which the protein stability index came out at 1.84.
RPFDCPVCNKKFKMKHHLTEWMKT [H21W]: the protein stability index is 2.13.
For the variant RPFDCPVCNKKFKMKHHLTEGMKT [H21G], the protein stability index worked out at 2.38.
Turning to RPFDCPVCNKKFKMKHHLTEFMKT [H21F], the protein stability index was 2.06.
With RPFDCPVCNKKFKMKHHLTEKMKT [H21K], the protein stability index stood at 2.25.
As to RPFDCPVCNKKFKMKHHLTEEMKT [H21E], the protein stability index was 2.88.
Turning to RPFDCPVCNKKFKMKHHLTEMMKT [H21M], the protein stability index was determined as 1.54.
Regarding RPFDCPVCNKKFKMKHHLTECMKT [H21C], the protein stability index came to 3.33.
RPFDCPVCNKKFKMKHHLTEVMKT [H21V]: the protein stability index amounted to 2.44.
As to RPFDCPVCNKKFKMKHHLTETMKT [H21T], the protein stability index was found to be 2.24.
On to RPFDCPVCNKKFKMKHHLTEPMKT [H21P], for which the protein stability index is 2.37.
Regarding RPFDCPVCNKKFKMKHHLTESMKT [H21S], the protein stability index amounted to 2.52.
Regarding RPFDCPVCNKKFKMKHHLTENMKT [H21N], the protein stability index came to 2.38.
Consider RPFDCPVCNKKFKMKHHLTEAMKT [H21A], for which the protein stability index was determined as 2.74.
Take RPFDCPVCNKKFKMKHHLTEHMST [K23S]: the protein stability index worked out at 2.4.
On to RPFDCPVCNKKFKMKHHLTEHMQT [K23Q], for which the protein stability index is 3.34.
Consider RPFDCPVCNKKFKMKHHLTEHMGT [K23G], for which the protein stability index was 2.99.
Same read-out and setting: the value for RPFDCPVCNKKFKMKHHLTEHMRT [K23R] was 2.26; that for RPFDCPVCNKKFKMKHHLTEHMDT [K23D] was 2.61.
Consider RPFDCPVCNKKFKMKHHLTEHMYT [K23Y], for which the protein stability index amounted to 2.17.
In the case of RPFDCPVCNKKFKMKHHLTEHMET [K23E], the protein stability index worked out at 2.39.
Same read-out and setting: with RPFDCPVCNKKFKMKHHLTEHMMT [K23M] the figure was 2.11.
Regarding RPFDCPVCNKKFKMKHHLTEHMCT [K23C], the protein stability index worked out at 4.19.
On to RPFDCPVCNKKFKMKHHLTEHMAT [K23A], for which the protein stability index amounted to 2.3.
With RPFDCPVCNKKFKMKHHLTEHMLT [K23L], the protein stability index was determined as 2.38.
As for RPFDCPVCNKKFKMKHHLTEHMHT [K23H], the protein stability index worked out at 3.06.
Same read-out and setting: the value for RPFDCPVCNKKFKMKHHLTEHMNT [K23N] was 3.29.
Consider RPFDCPVCNKKFKMKHHLTEHMVT [K23V], for which the protein stability index was 2.37.
On to RPFDCPVCNKKFKMKHHLTEHMWT [K23W], for which the protein stability index was 1.98.
As for RPFDCPVCNKKFKMKHHLTEHMPT [K23P], the protein stability index stood at 2.48.
As to RPFDCPVCNKKFKMKHHLTEHMIT [K23I], the protein stability index turned out to be 2.38.
Take RPFDCPVCNKKFKMKHHLTEHMFT [K23F]: the protein stability index came out at 1.95.
On the same count and under the same terms, the value for RPFDCPVCNKKFKMKHHLTEHMTT [K23T] was 2.38; that for RPFDCPVCNKKFKMKHHLTEHPKT [M22P] was 2.48; that for RPFDCPVCNKKFKMKHHLTEHQKT [M22Q] was 2.71.
Same read-out and setting: with RPFDCPVCNKKFKMKHHLTEHKKT [M22K] the figure was 2.92; with RPFDCPVCNKKFKMKHHLTEHSKT [M22S], 2.29.
Turning to RPFDCPVCNKKFKMKHHLTEHGKT [M22G], the protein stability index was 2.68.
Turning to RPFDCPVCNKKFKMKHHLTEHTKT [M22T], the protein stability index was 2.38.
Take RPFDCPVCNKKFKMKHHLTEHIKT [M22I]: the protein stability index is 2.15.
RPFDCPVCNKKFKMKHHLTEHRKT [M22R]: the protein stability index was determined as 2.48.
As to RPFDCPVCNKKFKMKHHLTEHCKT [M22C], the protein stability index was 2.93.
As for RPFDCPVCNKKFKMKHHLTEHVKT [M22V], the protein stability index stood at 1.89.
Take RPFDCPVCNKKFKMKHHLTEHLKT [M22L]: the protein stability index worked out at 2.95.
As to RPFDCPVCNKKFKMKHHLTEHEKT [M22E], the protein stability index is 3.
As for RPFDCPVCNKKFKMKHHLTEHAKT [M22A], the protein stability index is 2.48.
For the variant RPFDCPVCNKKFKMKHHLTEHNKT [M22N], the protein stability index is 2.62.
RPFDCPVCNKKFKMKHHLTEHHKT [M22H]: the protein stability index came out at 2.75.
As to RPFDCPVCNKKFKMKHHLTEHYKT [M22Y], the protein stability index amounted to 2.72.
As to RPFDCPVCNKKFKMKHHLTEHFKT [M22F], the protein stability index was determined as 2.3.
For the variant RPFDCPVCNKKFKMKHHLTEHWKT [M22W], the protein stability index stood at 2.43.
On the same count and under the same terms, with RPFDCPVCNKKFKMKHHLTEHDKT [M22D] the figure was 3.1.

In another series the parent is B2. The series is described as above. To be noted: c terminus: a fixed tail appended.
Take HHVADYYTSSQKVSPIQIDGAGRT [A6Y]: the protein stability index worked out at 3.32.
With HHVADQYTSSQKVSPIQIDGAGRT [A6Q], the protein stability index worked out at 4.32.
For the variant HHVADSYTSSQKVSPIQIDGAGRT [A6S], the protein stability index worked out at 4.14.
Regarding HHVADCYTSSQKVSPIQIDGAGRT [A6C], the protein stability index was 3.98.
Regarding HHVADTYTSSQKVSPIQIDGAGRT [A6T], the protein stability index was 4.02.
With HHVADAYTSSQKVSPIQIDVAGRT [G20V], the protein stability index was determined as 3.33.
On the same count and under the same terms, with HHVADAYTSSQKVSPIQIDYAGRT [G20Y] the figure was 2.83; with HHVADAYTSSQKVSPIQIDHAGRT [G20H], 3.31.
Take HHVADAYTSSQKVSPIQIAGAGRT [D19A]: the protein stability index is 3.01.
